Data on two molecules can be found in patent US20180214548A1.

The target in the test is NC-Fc. As to the kind of experiment: ELISA, coated protein 1 ug/mL; antibody concentration not stated. In general terms: In an ELISA, binding on a coated surface is turned into a signal by an enzyme label.

B1: chimeric anti-PD-1 antibody 21G8F11 (antibody, V domains shown)
VH: EVQLLESGGGLAQPGGSLRLSCAASGFSFNTYLMHWVRQAPGKGLEWVSAISGGGGNTYYADSVKGRFTISRDNSKNTLYLQMNSLRAEDTAVYYCAKENRIPVAPFDYWGQGTLVTVSS
VL: DIQMTQSPSTLSASVGDRVTITCRASQSISTWLAWYQQKPGKAPKLLIYKASSLESGVPSRFSGSGSGTEFTLTISSLQPDDLATYYCQQYNSFSWTFGQGTKVEIK
In turn, B1 registered an OD450 nm of 0.161.

B2: chimeric anti-PD-1 antibody 76G5B3 (antibody, V domains shown)
VH: QVQLVESGGGVVQPGRSLRLSCAASGFTFSDYGFHWVRQAPGKGLEWVAVIWYDGSNEYYTDSVKGRFTISRDNSKNTLYLQMNSLRAEDTAMYFCVVNPFDYWGQGTLVTVSS
VL: DIQMTQSPSSLSAFVGDRVTITCRASQGINHYLAWYQQKPGKAPNLLILAASTLLSGVPSRFGGRGSGTDFTLIISSLQPEDVATYYCQKYDSAPYTFGQGTKLEIK
The molecule B2 gave an OD450 nm of 0.268.
